Key:
Assay in all cases: cell-based or functional assay
[1] = target: HIV-1 Env of isolate CAAN.A2 (HIV-1)
[2] = target: HIV-1 Env of isolate MGRM-AE-001 (pseudovirus) (HIV-1)
[3] = target: HIV-1 Env of isolate 93UG077 (pseudovirus) (HIV-1)
[4] = target: HIV-1 Env of isolate CMU02 (pseudovirus) (HIV-1)
[5] = target: HIV-1 Env of isolate 93TH305 (HIV-1)
[6] = target: HIV-1 Env of isolate MG RM-A-007 (pseudovirus) (HIV-1)
[7] = target: HIV-1 Env of isolate MGRM-AE-004 (pseudovirus) (HIV-1)
[8] = target: HIV-1 Env of isolate APV_17 (HIV-1)
[9] = target: HIV-1 Env of isolate MG RM-A-012 (pseudovirus) (HIV-1)
[10] = target: HIV-1 Env of isolate 98CN006 (subtype CRF08 BC), on pseudovirus (HIV-1)
[11] = target: HIV-1 Env of isolate MGRM-Chronic-B-004 (HIV-1)
[12] = target: HIV-1 Env of isolate MGRM-Chronic-B-008 (HIV-1)
[13] = target: HIV-1 Env of isolate 92WR020 (pseudovirus) (HIV-1)
[14] = target: HIV-1 Env of isolate 98CN009 (subtype CRF07_BC), on pseudovirus (HIV-1)
[15] = target: HIV-1 Env of isolate MGRM-AE-003 (pseudovirus) (HIV-1)
[16] = target: HIV-1 Env of isolate 92UG005 (subtype D), on pseudovirus (HIV-1)
[17] = target: HIV-1 Env of isolate JRFL (HIV-1)
[18] = target: HIV-1 Env of isolate MGRM-D-005 (subtype D), on pseudovirus (HIV-1)
[19] = target: HIV-1 Env of isolate MG RM-A-010 (pseudovirus) (HIV-1)
[20] = target: HIV-1 Env of isolate MGRM-D-008 (subtype D), on pseudovirus (HIV-1)
[21] = target: HIV-1 Env of isolate 92WR024 (pseudovirus) (HIV-1)
[22] = target: HIV-1 Env of isolate APV_6 (HIV-1)
[23] = target: HIV-1 Env of isolate MGRM-D-004 (subtype D), on pseudovirus (HIV-1)
[24] = target: HIV-1 Env of isolate MGRM-Chronic-B-002 (HIV-1)
[25] = target: HIV-1 Env of isolate MG RM-A-008 (pseudovirus) (HIV-1)
[26] = target: HIV-1 Env of isolate 92RW008 (clade A), on pseudovirus (HIV-1)
[27] = target: HIV-1 Env of isolate 6535.3 (HIV-1)
[28] = target: HIV-1 Env of isolate 93WR029 (pseudovirus) (HIV-1)
[29] = target: HIV-1 Env of isolate 94UG103 (pseudovirus) (HIV-1)
[30] = target: HIV-1 Env of isolate 92UG114 (subtype D), on pseudovirus (HIV-1)
[31] = target: HIV-1 Env of isolate 92UG046 (subtype D), on pseudovirus (HIV-1)
[32] = target: HIV-1 Env of isolate MGRM-AE-002 (pseudovirus) (HIV-1)
[33] = target: HIV-1 Env of isolate 92WR026 (pseudovirus) (HIV-1)
[34] = target: HIV-1 Env of isolate 92RW009 (clade A), on pseudovirus (HIV-1)
[35] = target: HIV-1 Env of isolate VLGCA1 (pseudovirus) (HIV-1)
[36] = target: HIV-1 Env of isolate MG RM-A-006 (pseudovirus) (HIV-1)
[37] = target: HIV-1 Env of isolate 94 KE 105 (pseudovirus) (HIV-1)
[38] = target: HIV-1 Env of isolate MG RM-A-009 (pseudovirus) (HIV-1)
[39] = target: HIV-1 92BR020 envelope glycoprotein (Env) on pseudovirus (HIV-1)
[40] = target: HIV-1 Env of isolate MGRM-D-001 (subtype D), on pseudovirus (HIV-1)
[41] = target: HIV-1 Env of isolate 92UG024 (subtype D), on pseudovirus (HIV-1)
[42] = target: HIV-1 Env of isolate 92WR021 (pseudovirus) (HIV-1)
[43] = target: HIV-1 Env of isolate MGRM-D-003 (subtype D), on pseudovirus (HIV-1)
[44] = target: HIV-1 Env of isolate MGRM-Chronic-B-001 (HIV-1)
[45] = target: HIV-1 Env of isolate 92TH021 (pseudovirus) (HIV-1)
[46] = target: HIV-1 Env of isolate 92UG031 (pseudovirus) (HIV-1)
[47] = target: HIV-1 Env of isolate APV_13 (HIV-1)
[48] = target: HIV-1 Env of isolate MGRM-D-002 (subtype D), on pseudovirus (HIV-1)
[49] = target: HIV-1 92RW020 envelope glycoprotein (Env) on pseudovirus (HIV-1)
[50] = target: HIV-1 Env of isolate MGRM-AE-006 (pseudovirus) (HIV-1)
[51] = target: HIV-1 Env of isolate 92UG037 (pseudovirus) (HIV-1)
[52] = target: HIV-1 Env of isolate MGRM-Chronic-B-003 (HIV-1)
[53] = target: HIV-1 Env of isolate MG RM-A-011 (pseudovirus) (HIV-1)
[54] = target: HIV-1 Env of isolate 92UG001 (subtype D), on pseudovirus (HIV-1)
[55] = target: HIV-1 Env of isolate MG RM-A-014 (pseudovirus) (HIV-1)
[56] = target: HIV-1 Env of isolate 92BR020 (HIV-1)
[57] = target: HIV-1 Env of isolate MG RM-A-005 (pseudovirus) (HIV-1)
[58] = target: HIV-1 Env of isolate MG RM-A-013 (pseudovirus) (HIV-1)
[59] = target: HIV-1 Env of isolate MGRM-AE-005 (pseudovirus) (HIV-1)

Chain of 4993_K13 (PGT-141) (antibody) (VH): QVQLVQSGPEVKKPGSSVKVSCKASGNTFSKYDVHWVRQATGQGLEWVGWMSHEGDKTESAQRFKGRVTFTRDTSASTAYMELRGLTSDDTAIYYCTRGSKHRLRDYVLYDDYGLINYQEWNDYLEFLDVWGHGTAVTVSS
Chain of 4993_K13 (PGT-141) (antibody) (VL): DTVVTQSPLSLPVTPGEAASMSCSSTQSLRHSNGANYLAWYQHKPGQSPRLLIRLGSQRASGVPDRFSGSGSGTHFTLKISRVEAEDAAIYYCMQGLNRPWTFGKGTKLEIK

4993_K13 (PGT-141) (antibody) showed an IC50 [1] of over 50 µg/mL, an IC50 (µg/mL), pseudovirus neutralization [2] of over 50 µg/mL and an IC50 (µg/mL), pseudovirus neutralization [3] of over 50 µg/mL. For the same substance, the IC50 (µg/mL), pseudovirus neutralization [4] was over 50 µg/mL, the IC50 [5] was over 50 µg/mL and the IC50 (µg/mL), pseudovirus neutralization [6] was over 50 µg/mL. For the same substance, the IC50 (µg/mL), pseudovirus neutralization [7] was over 50 µg/mL, the IC50 [8] was 0.59 µg/mL and the IC50 (µg/mL), pseudovirus neutralization [9] was over 50 µg/mL. For the same substance, the IC50, pseudovirus neutralization [10] was over 50 µg/mL, the IC50 [11] was 0.586 µg/mL and the IC50 [12] was over 50 µg/mL. For the same substance, the IC50 (µg/mL), pseudovirus neutralization [13] was over 50 µg/mL, the IC50, pseudovirus neutralization [14] was 1.28 µg/mL and the IC50 (µg/mL), pseudovirus neutralization [15] was over 50 µg/mL. For the same substance, the IC50, pseudovirus neutralization [16] was over 5 µg/mL, the IC50 [17] was over 50 µg/mL and the IC50, pseudovirus neutralization [18] was 5.15 µg/mL. For the same substance, the IC50 (µg/mL), pseudovirus neutralization [19] was 0.022 µg/mL, the IC50, pseudovirus neutralization [20] was 0.371 µg/mL and the IC50 (µg/mL), pseudovirus neutralization [21] was 0.175 µg/mL. For the same substance, the IC50 [22] was 14.2 µg/mL, the IC50, pseudovirus neutralization [23] was over 50 µg/mL and the IC50 [24] was over 50 µg/mL. It also gave an IC50 (µg/mL), pseudovirus neutralization [25] of over 50 µg/mL, an IC50, single-round pseudovirus neutralization [26] of 0.579 µg/mL and an IC50 [27] of over 50 µg/mL. It also gave an IC50 (µg/mL), pseudovirus neutralization [28] of 0.019 µg/mL, an IC50 (µg/mL), pseudovirus neutralization [29] of over 50 µg/mL and an IC50, pseudovirus neutralization [30] of over 50 µg/mL. It also gave an IC50, pseudovirus neutralization [31] of over 50 µg/mL, an IC50 (µg/mL), pseudovirus neutralization [32] of over 50 µg/mL and an IC50 (µg/mL), pseudovirus neutralization [33] of 1.78 µg/mL. It also gave an IC50, single-round pseudovirus neutralization [34] of 0.022 µg/mL, an IC50 (µg/mL), pseudovirus neutralization [35] of 2.07 µg/mL and an IC50 (µg/mL), pseudovirus neutralization [36] of over 50 µg/mL. It also gave an IC50 (µg/mL), pseudovirus neutralization [37] of 0.204 µg/mL, an IC50 (µg/mL), pseudovirus neutralization [38] of 0.029 µg/mL and an IC50 (ug/ml), neutralizing activity [39] of over 10 µg/mL. It also gave an IC50, pseudovirus neutralization [40] of over 50 µg/mL, an IC50, pseudovirus neutralization [41] of over 50 µg/mL and an IC50 (µg/mL), pseudovirus neutralization [42] of over 50 µg/mL. It also gave an IC50, pseudovirus neutralization [43] of over 50 µg/mL, an IC50 [44] of over 50 µg/mL and an IC50 (µg/mL), pseudovirus neutralization [45] of 0.001 µg/mL. It also gave an IC50 (µg/mL), pseudovirus neutralization [46] of 0.093 µg/mL, an IC50 [47] of over 50 µg/mL and an IC50, pseudovirus neutralization [48] of over 50 µg/mL. For the same substance, the IC50 (ug/ml), neutralizing activity [49] was over 10 µg/mL, the IC50 (µg/mL), pseudovirus neutralization [50] was over 50 µg/mL and the IC50 (µg/mL), pseudovirus neutralization [51] was 1.28 µg/mL. For the same substance, the IC50 [52] was 0.4 µg/mL, the IC50 (µg/mL), pseudovirus neutralization [53] was over 50 µg/mL and the IC50, pseudovirus neutralization [54] was over 50 µg/mL. For the same substance, the IC50 (µg/mL), pseudovirus neutralization [55] was 0.628 µg/mL, the IC50 [56] was 20.3 µg/mL and the IC50 (µg/mL), pseudovirus neutralization [57] was 11.1 µg/mL. The IC50 (µg/mL), pseudovirus neutralization [58] was 9.86 µg/mL and the IC50 (µg/mL), pseudovirus neutralization [59] was over 50 µg/mL.
